# Measurements reported in patent publication US20180142007A1 (AXON NEUROSCIENCE, published 2018).
# Where a chain is given by its changes, count along the chain named.
# T1: tau peptide 256-285 (human)
# T1 construct: Synthetic peptide (EZBiolabs), numbered on tau 2N4R
# T1 peptide: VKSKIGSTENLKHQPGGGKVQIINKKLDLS
# T2: tau peptide 282-311 (human)
# T2 construct: Synthetic peptide (EZBiolabs), numbered on tau 2N4R; also called peptide derived from MTBRII
# T2 peptide: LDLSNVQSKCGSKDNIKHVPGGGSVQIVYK
# T3: tau peptide 314-342 (human)
# T3 construct: Synthetic peptide (EZBiolabs), numbered on tau 2N4R
# T3 peptide: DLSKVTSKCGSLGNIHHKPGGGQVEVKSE
# T4: tau peptide 352-380 (human)
# T4 construct: Synthetic peptide (EZBiolabs), numbered on tau 2N4R
# T4 peptide: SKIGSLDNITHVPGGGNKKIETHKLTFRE
# B1: chimeric DC8E8 (isotype not stated where tested) (antibody)
# VH: QVQLQQSGPELVKPGTSVKMPCKASGYIFTDYVISWVKQRTGQGLEWIGEIFPRSGSTYYNEKFKGKATLTADKSSNTAYMQLSSVTSEDSAVYFCARDYYGTSFAMDYWGQGTSVTVSS
# light: DIVMSQSPSSLAVSAGEKVTMSCKSSQSLLNSRTRKNYLAWYQQKPGQSPKLLIYWASTRESGVPDRFTGSGSGTDFTLTISSVQAEDLAVYYCKQSFYLRTFGGGTKLDIKRTVAAPSVFIFPPSDEQLKSGTASVVCLLNNFYPREAKVQWKVDNALQSGNSQESVTEQDSKDSTYSLSSTLTLSKADYEKHKVYACEVTHQGLSSPVTKSFNRGEC
# notes: Whole chimeric antibody with human constant regions; also called chimeric antibody
# B2: mouse monoclonal antibody DC8E8 (antibody, mouse IgG1)
# heavy: QVQLQQSGPELVKPGTSVKMPCKASGYIFTDYVISWVKQRTGQGLEWIGEIFPRSGSTYYNEKFKGKATLTADKSSNTAYMQLSSVTSEDSAVYFCARDYYGTSFAMDYWGQGTSVTVSSAKTTPPSVYPLAPGSAAQTNSMVTLGCLVKGYFPEPVTVTWNSGSLSSGVHTFPAVLQSDLYTLSSSVTVPSSTWPSQTVTCNVAHPASSTKVDKKIVPRDCGCKPCICTVPEVSSVFIFPPKPKDVLTITLTPKVTCVVVDISKDDPEVQFSWFVDDVEVHTAQTKPREEQINSTFRSVSELPIMHQDWLNGKEFKCRVNSAAFPAPIEKTISKTKGRPKAPQVYTIPPPKEQMAKDKVSLTCMITNFFPEDITVEWQWNGQPAENYKNTQPIMDTDGSYFVYSKLNVQKSNWEAGNTFTCSVLHEGLHNHHTEKSLSHSPGK
# VL: DIVMSQSPSSLAVSAGEKVTMSCKSSQSLLNSRTRKNYLAWYQQKPGQSPKLLIYWASTRESGVPDRFTGSGSGTDFTLTISSVQAEDLAVYYCKQSFYLRTFGGGTKLDIK
# notes: also called murine DC8E8; mouse DC8E8
# B3: AX004-IgG1, humanized DC8E8 RHD/RKA, IgG1 isotype (antibody)
# heavy: not shown
# light: DIVMTQSPLSLPVTPGEPASISCKSSQSLLNSRTRKNYLAWYLQKPGQSPQLLIYWASTRESGVPDRFTGSGSGTDFTLKISRVEAEDVGVYYCKQSFYLRTFGQGTKVEIKRTVAAPSVFIFPPSDEQLKSGTASVVCLLNNFYPREAKVQWKVDNALQSGNSQESVTEQDSKDSTYSLSSTLTLSKADYEKHKVYACEVTHQGLSSPVTKSFNRGEC
# notes: Expressed in Expi293, purified on Protein A and by size exclusion
# B4: AX004-IgG4, humanized DC8E8 RHD/RKA, IgG4 isotype (antibody)
# heavy: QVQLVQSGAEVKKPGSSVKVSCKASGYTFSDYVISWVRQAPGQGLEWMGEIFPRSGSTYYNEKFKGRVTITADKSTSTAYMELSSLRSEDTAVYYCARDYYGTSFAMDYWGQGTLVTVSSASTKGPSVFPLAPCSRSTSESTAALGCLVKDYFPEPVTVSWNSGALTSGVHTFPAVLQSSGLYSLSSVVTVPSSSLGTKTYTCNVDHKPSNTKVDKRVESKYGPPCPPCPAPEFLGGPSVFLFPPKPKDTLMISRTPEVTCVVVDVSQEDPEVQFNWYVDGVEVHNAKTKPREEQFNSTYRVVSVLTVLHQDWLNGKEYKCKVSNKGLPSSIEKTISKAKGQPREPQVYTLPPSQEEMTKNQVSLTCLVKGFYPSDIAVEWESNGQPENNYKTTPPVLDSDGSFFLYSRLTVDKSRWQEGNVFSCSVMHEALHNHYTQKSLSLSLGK
# light: B3 light
# notes: Expressed in Expi293; also called AXON004-IgG4
# B5: AX016-IgG1, humanized DC8E8 RHD/RKB, IgG1 isotype (antibody)
# heavy: not shown
# light: B3 light with T5S
# notes: as for B3
# B6: AX016-IgG4, humanized DC8E8 RHD/RKB, IgG4 isotype (antibody)
# heavy: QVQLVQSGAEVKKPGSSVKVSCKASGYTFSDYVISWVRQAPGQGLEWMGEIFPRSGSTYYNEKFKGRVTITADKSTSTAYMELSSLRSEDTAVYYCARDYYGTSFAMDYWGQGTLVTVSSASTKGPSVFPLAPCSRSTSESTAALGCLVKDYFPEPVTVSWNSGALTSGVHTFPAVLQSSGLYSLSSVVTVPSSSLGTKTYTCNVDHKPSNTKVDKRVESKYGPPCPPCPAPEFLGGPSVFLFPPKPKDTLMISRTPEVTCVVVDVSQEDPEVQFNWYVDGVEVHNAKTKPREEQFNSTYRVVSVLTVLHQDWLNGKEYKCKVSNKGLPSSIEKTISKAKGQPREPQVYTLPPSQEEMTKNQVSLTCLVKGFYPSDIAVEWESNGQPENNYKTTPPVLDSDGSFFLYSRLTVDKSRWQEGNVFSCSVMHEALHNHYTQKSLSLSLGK
# light: B3 light with T5S
# notes: Expressed in Expi293; also called AXON016-IgG4
# B7: AX017-IgG1, humanized DC8E8 RHE/RKB, IgG1 isotype (antibody)
# heavy: not shown
# light: B3 light with T5S
# notes: as for B3
# B8: AX017-IgG4, humanized DC8E8 RHE/RKB, IgG4 isotype (antibody)
# heavy: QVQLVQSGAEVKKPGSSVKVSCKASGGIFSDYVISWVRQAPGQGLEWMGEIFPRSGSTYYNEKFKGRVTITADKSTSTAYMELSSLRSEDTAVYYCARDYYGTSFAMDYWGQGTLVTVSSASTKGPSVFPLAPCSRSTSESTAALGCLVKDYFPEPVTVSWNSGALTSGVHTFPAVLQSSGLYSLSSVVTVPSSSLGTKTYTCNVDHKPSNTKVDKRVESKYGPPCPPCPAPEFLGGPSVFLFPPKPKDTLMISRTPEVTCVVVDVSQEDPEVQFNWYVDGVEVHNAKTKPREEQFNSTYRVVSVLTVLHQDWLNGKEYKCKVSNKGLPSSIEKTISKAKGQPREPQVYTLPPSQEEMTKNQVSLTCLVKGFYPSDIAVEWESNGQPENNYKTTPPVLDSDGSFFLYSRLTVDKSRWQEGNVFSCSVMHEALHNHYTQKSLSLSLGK
# light: B3 light with T5S
# notes: Expressed in Expi293; also called AXON017-IgG4
# B9: AX005-IgG4, humanized DC8E8 RHE/RKA, IgG4 isotype (antibody)
# heavy: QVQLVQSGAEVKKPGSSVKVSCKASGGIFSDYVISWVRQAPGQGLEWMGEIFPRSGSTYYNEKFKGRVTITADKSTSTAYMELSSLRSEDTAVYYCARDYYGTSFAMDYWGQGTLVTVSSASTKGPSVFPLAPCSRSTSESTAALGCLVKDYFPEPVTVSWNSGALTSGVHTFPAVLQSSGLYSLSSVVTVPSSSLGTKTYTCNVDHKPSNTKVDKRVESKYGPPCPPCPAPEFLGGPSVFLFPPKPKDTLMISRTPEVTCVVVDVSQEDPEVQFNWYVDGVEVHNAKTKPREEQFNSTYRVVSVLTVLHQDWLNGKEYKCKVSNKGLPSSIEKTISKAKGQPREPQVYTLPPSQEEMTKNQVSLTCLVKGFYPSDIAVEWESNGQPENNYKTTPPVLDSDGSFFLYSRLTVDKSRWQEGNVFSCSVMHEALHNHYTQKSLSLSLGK
# light: B3 light
# notes: Expressed in Expi293; also called AXON005-IgG4
# B10: AX005-IgG1, humanized DC8E8 RHE/RKA, IgG1 isotype (antibody)
# heavy: not shown
# light: B3 light
# notes: as for B3
# B11: AX002, humanized DC8E8 RHB/RKA (isotype not stated where tested) (antibody)
# VH: QVQLVQSGPEVKKPGSSVKVPCKASGYIFTDYVISWVKQAPGQGLEWIGEIFPRSGSTYYNEKFKGKATLTADKSTSTAYMELSSLRSEDTAVYFCARDYYGTSFAMDYWGQGTLVTVSS
# light: B3 light
# B12: AX014-IgG4, humanized DC8E8 RHB/RKB, IgG4 isotype (antibody)
# heavy: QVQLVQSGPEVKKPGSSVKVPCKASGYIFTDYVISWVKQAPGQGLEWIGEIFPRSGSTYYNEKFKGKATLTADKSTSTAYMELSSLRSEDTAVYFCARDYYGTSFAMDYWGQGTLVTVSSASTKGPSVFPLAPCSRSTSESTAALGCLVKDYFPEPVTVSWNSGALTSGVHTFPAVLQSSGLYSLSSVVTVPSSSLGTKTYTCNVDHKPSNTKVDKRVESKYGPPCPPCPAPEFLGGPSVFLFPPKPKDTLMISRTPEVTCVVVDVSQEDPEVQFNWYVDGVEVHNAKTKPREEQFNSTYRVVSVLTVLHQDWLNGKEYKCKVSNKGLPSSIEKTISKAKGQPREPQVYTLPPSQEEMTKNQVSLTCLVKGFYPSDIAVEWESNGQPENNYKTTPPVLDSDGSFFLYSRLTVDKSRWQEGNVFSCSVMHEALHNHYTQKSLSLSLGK
# light: B3 light with T5S
# notes: also called AXON014-IgG4
# B13: AX002-IgG4, humanized DC8E8 RHB/RKA, IgG4 isotype (antibody)
# heavy: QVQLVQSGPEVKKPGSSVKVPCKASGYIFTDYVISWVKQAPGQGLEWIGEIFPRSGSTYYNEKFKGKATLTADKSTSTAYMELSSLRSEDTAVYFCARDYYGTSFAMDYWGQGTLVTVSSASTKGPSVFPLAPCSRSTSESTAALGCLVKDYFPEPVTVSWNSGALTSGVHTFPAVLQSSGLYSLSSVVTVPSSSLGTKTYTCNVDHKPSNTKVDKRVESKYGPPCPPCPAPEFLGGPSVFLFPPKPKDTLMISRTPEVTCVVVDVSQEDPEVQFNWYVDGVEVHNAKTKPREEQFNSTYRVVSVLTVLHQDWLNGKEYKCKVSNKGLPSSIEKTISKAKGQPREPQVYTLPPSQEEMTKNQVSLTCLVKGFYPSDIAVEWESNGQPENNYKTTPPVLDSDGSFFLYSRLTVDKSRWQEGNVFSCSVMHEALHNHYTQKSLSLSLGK
# light: B3 light
# notes: also called AXON002-IgG4
# B14: AX028-IgG4, RHD heavy chain with chimeric DC8E8 kappa light chain, IgG4 isotype (antibody, V domains shown)
# VH: B11 VH with P9A, P21S, I28T, T30S, K38R, I48M, K67R, A68V, L70I, F95Y
# VL: DIVMSQSPSSLAVSAGEKVTMSCKSSQSLLNSRTRKNYLAWYQQKPGQSPKLLIYWASTRESGVPDRFTGSGSGTDFTLTISSVQAEDLAVYYCKQSFYLRTFGGGTKLDIKR
# notes: also called AXON028-IgG4; RHD/VK
# B15: AX029-IgG4, RHE heavy chain with chimeric DC8E8 kappa light chain, IgG4 isotype (antibody, V domains shown)
# VH: B11 VH with P9A, P21S, Y27G, T30S, K38R, I48M, K67R, A68V, L70I, F95Y
# VL: B14 VL
# notes: also called AXON029-IgG4; RHE/VK
# B16: AX026-IgG4, RHB heavy chain with chimeric DC8E8 kappa light chain, IgG4 isotype (antibody, V domains shown)
# VH: B11 VH
# VL: B14 VL
# notes: also called AXON026-IgG4; RHB/VK
# B17: AX038, humanized DC8E8 RHM/RKB (isotype not stated where tested) (antibody, V domains shown)
# VH: B11 VH with P9A, P21S, T30S, K38R, I48M, K67R, A68V, L70I, F95Y
# VL: DIVMSQSPLSLPVTPGEPASISCKSSQSLLNSRTRKNYLAWYLQKPGQSPQLLIYWASTRESGVPDRFTGSGSGTDFTLKISRVEAEDVGVYYCKQSFYLRTFGQGTKVEIKR
# notes: also called RHM version
# B18: AX001, humanized DC8E8 RHA/RKA (isotype not stated where tested) (antibody, V domains shown)
# VH: QVQLVQSGAEVKKPGSSVKVSCKASGGTFSDYVISWVRQAPGQGLEWMGEIFPRSGSTYYNEKFKGRVTITADKSTSTAYMELSSLRSEDTAVYYCARDYYGTSFAMDYWGQGTLVTVSS
# VL: B17 VL with S5T
# notes: also called initial humanized version
# B19: AX037, humanized DC8E8 RHM/RKA (isotype not stated where tested) (antibody, V domains shown)
# VH: B18 VH with G27Y, T28I
# VL: B17 VL with S5T
# notes: also called RHM version
# B20: AX014, humanized DC8E8 RHB/RKB (isotype not stated where tested) (antibody)
# VH: B11 VH
# light: B3 light with T5S
# notes: 2 (a CDR)
# B21: AX016, humanized DC8E8 RHD/RKB (isotype not stated where tested) (antibody)
# VH: B18 VH with G27Y
# light: B3 light with T5S
# notes: also called AX016 (DB)
# Target: T5, misdisordered truncated tau 151-391/4R (human, UniProt P10636 468-708)
# T5 sequence (P10636 468-708): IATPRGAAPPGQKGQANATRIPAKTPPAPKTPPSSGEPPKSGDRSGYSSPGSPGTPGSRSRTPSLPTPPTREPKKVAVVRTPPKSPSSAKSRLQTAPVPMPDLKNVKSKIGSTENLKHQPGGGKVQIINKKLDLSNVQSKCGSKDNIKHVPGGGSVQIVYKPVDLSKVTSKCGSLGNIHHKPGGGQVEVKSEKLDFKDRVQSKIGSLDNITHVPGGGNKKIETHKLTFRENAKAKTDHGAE
# Assay: cell-based or functional assay
row,Binder,"amount of fibrillized pathological tau forms (Thioflavin T fluorescence), antibody at 10 uM [%]"
1,B1,< 5.9
2,B2,< 4.7
3,B3,< 3
4,B4,< 3
5,B5,< 3
6,B6,< 3

# Target: T1, tau peptide 256-285
# Assay: direct ELISA, tau peptide coated on plate
row,Binder,binding result
1,B3,binds
2,B4,binds
3,B5,binds
4,B6,binds

# Target: T2, tau peptide 282-311
# Assay: direct ELISA, tau peptide coated on plate
row,Binder,binding result
1,B2,binds
2,B3,binds
3,B4,binds
4,B5,binds
5,B7,binds
6,B6,binds
7,B8,binds
8,B9,binds
9,B10,binds

# Target: T3, tau peptide 314-342
# Assay: direct ELISA, tau peptide coated on plate
row,Binder,binding result
1,B3,binds
2,B4,binds
3,B5,binds
4,B7,binds
5,B6,binds
6,B8,binds
7,B9,binds
8,B10,binds

# Target: T4, tau peptide 352-380
# Assay: direct ELISA, tau peptide coated on plate
row,Binder,binding result
1,B3,binds
2,B4,binds
3,B5,binds
4,B7,binds
5,B6,binds
6,B8,binds
7,B9,binds
8,B10,binds

# Target: T5, misdisordered truncated tau 151-391/4R
# Assay: binding ELISA, plate coated with Tau 151-391/4R
row,Binder,binding result
1,B11,binds

# Target: T5, misdisordered truncated tau 151-391/4R
# Assay: binding ELISA of IgG4 versions, plate coated with Tau 151-391/4R
row,Binder,binding result
1,B12,binds
2,B13,binds
3,B14,binds
4,B15,binds
5,B16,binds

# Target: T5, misdisordered truncated tau 151-391/4R
# Assay: assay not named in the sentence (tau binding assay of the examples)
Binder,binding result,fold decrease in binding affinity relative to chimeric DC8E8 [fold]
B17,binds,
B18,,10
B19,binds,
B20,binds,

# Target: T5, misdisordered truncated tau 151-391/4R
# Assay: SPR Biacore T200, antibody captured by anti-IgG on CM5 chip, tau 151-391/4R as analyte, steady state analysis
# Protocol: Antibody affinity determination was carried out by SPR analysis using a Biacore T200. Anti-human IgG (GE Healthcare, cat. no. BR-1008-39) or anti-murine IgG (GE Healthcare, cat. no. BR-1008-38) was covalently immobilized to a CM5 chip (Cat. no. BR-1005-30) to the point of saturation and in accordance with the manufacturer's instructions. […] Association time was set at 150 sec and disassociation time 300 sec. Tau concentrations were chosen empirically in order to obtain curvature during the association phase. The kinetics of binding/dissociation was initially analyzed according to the 1:1 interaction model using BIAcore T200 evaluation software package 2.0.
row,Binder,Kd [nM]
1,B1,~10
2,B2,~10
3,B21,9
